Test results reported in publication doi:10.1101/2020.05.22.111047.

Target: Carbonic anhydrase 1 (CA1) (human, UniProt P00915 2-261)
Test: G-FET

Sequence of Carbonic anhydrase 1 (CA1) (P00915 2-261): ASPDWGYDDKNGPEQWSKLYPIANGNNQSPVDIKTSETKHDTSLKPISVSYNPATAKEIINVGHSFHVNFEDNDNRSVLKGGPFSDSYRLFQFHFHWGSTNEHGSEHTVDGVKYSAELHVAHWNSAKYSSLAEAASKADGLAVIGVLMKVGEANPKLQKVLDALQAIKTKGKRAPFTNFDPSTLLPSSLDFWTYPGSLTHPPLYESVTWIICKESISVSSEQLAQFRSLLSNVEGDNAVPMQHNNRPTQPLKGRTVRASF

B1: CA1 RNA aptamer (ssRNA)
RNA: CAGGCGCAGUAUCACUUUGUGAUCAUUAGUGGGUUCCGUG
modifications: 5' amine, coupled to graphene via PBASE linker
B1 gave a Kd of 2.27 ng/mL.
